# According to patent US20260098059A1 (ENDOMET BIOSCIENCES, published 2026):
# “And” between values parts separate entries of the source, which are not always exact repeats. Identical values can stand only once. Bridges are numbered along the chain shown (N, C = ends). Where no end group is shown, it is not given here. [ ]: non-standard residue; d: D form. Cha = N[C@@H](CC1CCCCC1)C(=O)O; Chg = N[C@H](C(=O)O)C1CCCCC1; NMeA = CN[C@@H](C)C(=O)O; Abu = CC[C@H](N)C(=O)O
# T1: β-catenin (UniProt P35222 134-665, limits assumed, biotinylated in the SPR and plate assays)
# T1 construct: also called beta catenin; biotinylated β-catenin
# T1 sequence (looked up): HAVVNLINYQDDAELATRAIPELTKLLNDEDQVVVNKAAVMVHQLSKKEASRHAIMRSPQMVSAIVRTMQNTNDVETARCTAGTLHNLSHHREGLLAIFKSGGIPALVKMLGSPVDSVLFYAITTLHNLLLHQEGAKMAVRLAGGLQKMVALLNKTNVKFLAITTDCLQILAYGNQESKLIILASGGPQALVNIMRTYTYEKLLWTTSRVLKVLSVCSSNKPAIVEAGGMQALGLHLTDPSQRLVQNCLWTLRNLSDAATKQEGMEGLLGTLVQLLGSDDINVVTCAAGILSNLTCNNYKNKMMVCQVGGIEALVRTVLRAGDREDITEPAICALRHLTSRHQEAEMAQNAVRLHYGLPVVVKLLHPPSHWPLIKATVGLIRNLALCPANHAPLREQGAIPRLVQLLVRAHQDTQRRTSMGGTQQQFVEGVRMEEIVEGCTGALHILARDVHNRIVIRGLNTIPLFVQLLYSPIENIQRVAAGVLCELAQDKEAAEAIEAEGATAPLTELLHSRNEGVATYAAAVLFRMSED
# B1: SEQ ID NO: 421 (peptide)
# peptide: WAQKGLDEHVQRVWG
# HELM: PEPTIDE1{[ac].W.[meA].Q.K.[O=C([C@@H](N[*:1])C1CCCCC1)[*:2]].L.D.E.H.V.Q.R.V.W.G.[am]}$PEPTIDE1,PEPTIDE1,5:R3-9:R3$$$V2.0
# SMILES: CC(=O)N[C@@H](Cc1c[nH]c2ccccc12)C(=O)N(C)[C@@H](C)C(=O)N[C@@H](CCC(N)=O)C(=O)N[C@H]1CCCCNC(=O)CC[C@@H](C(=O)N[C@@H](Cc2c[nH]cn2)C(=O)N[C@H](C(=O)N[C@@H](CCC(N)=O)C(=O)N[C@@H](CCCNC(=N)N)C(=O)N[C@H](C(=O)N[C@@H](Cc2c[nH]c3ccccc23)C(=O)NCC(N)=O)C(C)C)C(C)C)NC(=O)[C@H](CC(=O)O)NC(=O)[C@H](CC(C)C)NC(=O)[C@H](C2CCCCC2)NC1=O
# B2: SEQ ID NO: 422 (peptide)
# peptide: W[NMeA]QK[Chg]LDEHVQRVWG-NH2
# modifications: lactam 4-8; not fully specified (N-terminus); printed as H17C8C(O)NH-W-NMeA-QK*-Chg-LDE*HVQRVWG-NH2
# B3: SEQ ID NO: 470 (peptide)
# peptide: Ac-W[NMeA]QSILDEH[Chg]QKVWG-NH2
# modifications: lactam 8-12; not fully specified; printed as Ac-NH-W-NMeA-QSILDE*H-Chg-QK*VWG-NH2
# B4: SEQ ID NO: 437 (peptide)
# peptide: WAQSILDEHVQKVWG
# HELM: PEPTIDE1{[ac].W.[meA].Q.S.I.L.D.E.H.V.Q.K.V.W.G.[am]}$PEPTIDE1,PEPTIDE1,9:R3-13:R3$$$V2.0
# SMILES: CC[C@H](C)[C@H](NC(=O)[C@H](CO)NC(=O)[C@H](CCC(N)=O)NC(=O)[C@H](C)N(C)C(=O)[C@H](Cc1c[nH]c2ccccc12)NC(C)=O)C(=O)N[C@@H](CC(C)C)C(=O)N[C@@H](CC(=O)O)C(=O)N[C@H]1CCC(=O)NCCCC[C@@H](C(=O)N[C@H](C(=O)N[C@@H](Cc2c[nH]c3ccccc23)C(=O)NCC(N)=O)C(C)C)NC(=O)[C@H](CCC(N)=O)NC(=O)[C@H](C(C)C)NC(=O)[C@H](Cc2c[nH]cn2)NC1=O
# B5: SEQ ID NO: 460 (peptide)
# peptide: Ac-W[NMeA]QSILDKH[Chg]QDVW-NH2
# modifications: lactam 8-12; not fully specified; printed as Ac-NH-W-NMeA-QSILDK*H-Chg-QD*VW-NH2
# B6: SEQ ID NO: 466 (peptide)
# peptide: Ac-W[NMeA]QSILDEH[Chg]QKVW-NH2
# modifications: lactam 8-12; not fully specified; printed as Ac-NH-W-NMeA-QSILDE*H-Chg-QK*VW-NH2
# B7: SEQ ID NO: 230 (peptide)
# peptide: MWKLIEFWG
# HELM: PEPTIDE1{M.W.K.L.I.E.F.W.G}$PEPTIDE1,PEPTIDE1,3:R3-6:R3$$$V2.0
# SMILES: CC[C@H](C)[C@@H]1NC(=O)[C@H](CC(C)C)NC(=O)[C@@H](NC(=O)[C@H](Cc2c[nH]c3ccccc23)NC(=O)[C@@H](N)CCSC)CCCCNC(=O)CC[C@@H](C(=O)N[C@@H](Cc2ccccc2)C(=O)N[C@@H](Cc2c[nH]c3ccccc23)C(=O)NCC(=O)O)NC1=O
# B8: SEQ ID NO: 233 (peptide)
# peptide: DWFLICAWK
# HELM: PEPTIDE1{D.W.F.L.I.C.A.W.K}$PEPTIDE1,PEPTIDE1,1:R3-9:R3$$$V2.0
# SMILES: CC[C@H](C)[C@@H]1NC(=O)[C@H](CC(C)C)NC(=O)[C@H](Cc2ccccc2)NC(=O)[C@H](Cc2c[nH]c3ccccc23)NC(=O)[C@@H](N)CC(=O)NCCCC[C@@H](C(=O)O)NC(=O)[C@H](Cc2c[nH]c3ccccc23)NC(=O)[C@H](C)NC(=O)[C@H](CS)NC1=O
# B9: SEQ ID NO: 244 (peptide)
# peptide: KWFLIXAWD
# HELM: PEPTIDE1{K.W.F.L.I.[Abu].A.W.D}$PEPTIDE1,PEPTIDE1,1:R3-9:R3$$$V2.0
# SMILES: CC[C@@H]1NC(=O)[C@H]([C@@H](C)CC)NC(=O)[C@H](CC(C)C)NC(=O)[C@H](Cc2ccccc2)NC(=O)[C@H](Cc2c[nH]c3ccccc23)NC(=O)[C@@H](N)CCCCNC(=O)C[C@@H](C(=O)O)NC(=O)[C@H](Cc2c[nH]c3ccccc23)NC(=O)[C@H](C)NC1=O
# B10: SEQ ID NO: 245 (peptide)
# peptide: XWFLICAWD
# HELM: PEPTIDE1{[O=C(CCCCCN[*:1])[*:2]].W.F.L.I.C.A.W.D}$PEPTIDE1,PEPTIDE1,1:R1-9:R3$$$V2.0
# SMILES: CC[C@H](C)[C@@H]1NC(=O)[C@H](CC(C)C)NC(=O)[C@H](Cc2ccccc2)NC(=O)[C@H](Cc2c[nH]c3ccccc23)NC(=O)CCCCCNC(=O)C[C@@H](C(=O)O)NC(=O)[C@H](Cc2c[nH]c3ccccc23)NC(=O)[C@H](C)NC(=O)[C@H](CS)NC1=O
# B11: SEQ ID NO: 246 (peptide)
# peptide: XWFLIXAWD
# HELM: PEPTIDE1{[O=C(CCCCCN[*:1])[*:2]].W.F.L.I.[Abu].A.W.D}$PEPTIDE1,PEPTIDE1,1:R1-9:R3$$$V2.0
# SMILES: CC[C@@H]1NC(=O)[C@H]([C@@H](C)CC)NC(=O)[C@H](CC(C)C)NC(=O)[C@H](Cc2ccccc2)NC(=O)[C@H](Cc2c[nH]c3ccccc23)NC(=O)CCCCCNC(=O)C[C@@H](C(=O)O)NC(=O)[C@H](Cc2c[nH]c3ccccc23)NC(=O)[C@H](C)NC1=O
# B12: SEQ ID NO: 414 (peptide)
# peptide: WAQKILDEHGXRVWG
# HELM: PEPTIDE1{[ac].W.[meA].Q.K.I.L.D.E.H.[O=C([C@@H](N[*:1])C1CCCCC1)[*:2]].[Aib].R.V.W.G.[am]}$PEPTIDE1,PEPTIDE1,5:R3-9:R3$$$V2.0
# SMILES: CC[C@H](C)[C@@H]1NC(=O)[C@@H](NC(=O)[C@H](CCC(N)=O)NC(=O)[C@H](C)N(C)C(=O)[C@H](Cc2c[nH]c3ccccc23)NC(C)=O)CCCCNC(=O)CC[C@@H](C(=O)N[C@@H](Cc2c[nH]cn2)C(=O)N[C@H](C(=O)NC(C)(C)C(=O)N[C@@H](CCCNC(=N)N)C(=O)N[C@H](C(=O)N[C@@H](Cc2c[nH]c3ccccc23)C(=O)NCC(N)=O)C(C)C)C2CCCCC2)NC(=O)[C@H](CC(=O)O)NC(=O)[C@H](CC(C)C)NC1=O
# Biological target: T1, β-catenin
# Assay: competitive FP
# From the text: Fluorescence polarization (FP) is another method used to analyze protein-ligand interactions. This methodology measures the change in fluorescence light emitted by a labelled compound free vs. conjugated to another compound in solution. Upon binding of the fluorescent molecule to a complex, polarization increases because of limited rotation of the fluorescent tracer. Competitive FP is often utilized in drug screens as it is formatted for high throughput screens in a plate format. This immunoassay is performed by introducing a non-conjugated drug to compete for binding to the labelled competitor-ligand complex, leading to a reduction in polarization. […] Exemplary methodology is described in Example 13. Data were analyzed and plotted in Microsoft Excel (Microsoft, Redmond, WA).
# Varying concentrations of β-catenin inhibitor candidate (SEQ ID NO: 404) were then added in a series of serial dilutions from 10 nM to 30 uM of inhibitor in different wells of the plate. The fluorescence polarization was read by Infinite M1000 (Tecan, Baldwin Park CA) at excitation wavelength of 470 nm and measured at emission wavelength of 520 nm. […] The experiments were performed three times and data were analyzed and plotted in Microsoft Excel (Microsoft, Redmond, WA).
row,Binder,Kd
1,B1,≤ 400 nM
2,B2,> 400 nM and ≤ 1000 nM
3,B3,≤ 400 nM
4,B4,≤ 400 nM
5,B5,≤ 400 nM
6,WPQSILDKHGQDVW (not fully specified; Ac-NH-WPQSILDK*H-Chg-QD*VW-NH2) [SEQ ID NO: 462],≤ 400 nM
7,B6,≤ 400 nM
8,WPQSILDEHGQKVW (not fully specified; Ac-NH-WPQSILDE*H-Chg-QK*VW-NH2) [SEQ ID NO: 468],≤ 400 nM
9,B7,≤ 400 nM
10,B8,≤ 400 nM
11,Ac-LISFWG-OH [SEQ ID NO: 238],> 10000 nM and ≤ 30000 nM
12,B9,> 400 nM and ≤ 1000 nM
13,B10,≤ 400 nM
14,B11,≤ 400 nM
15,H-RKKRRQRRR[Peg2]KW[Cha]LI[Abu]AWD-OH [SEQ ID NO: 282/493],≤ 400 nM
16,B12,≤ 400 nM
